From patent publication US20110117082A1 (SHANGHAI FUDAN ZHANGJIANG BIO PHARMACEUTICAL, published 2011) come the findings set out here.

First the molecules themselves.
B1: wild-type soluble human TNFRp75:Fc fusion protein (ENBREL from AMGEN) (Fc fusion, not shown: a dimerising Fc or GST)
chain: LPAQVAFTPYAPEPGSTCRLREYYDQTAQMCCSKCSPGQHAKVFCTKTSDTVCDSCEDSTYTQLWNWVPECLSCGSRCSSDQVETQACTREQNRICTCRPGWYCALSKQEGCRLCAPLRKCRPGFGVARPGTETSDVVCKPCAPGTFSNTTSSTDICRPHQICNVVAIPGNASMDAVCTSTSPTRSMAPGAVHLPQPVSTRSQHTQPTPEPSTAPSTSFLLPMGPSPPAEGSTGD
B2: LT28-171 (lymphotoxin) (ligand, UniProt P01374 62-205, looked up)
chain: KPAAHLIGDPSKQNSLLWRANTDRAFLQDGFSLSNNSLLVPTSGIYFVYSQVVFSGKAYSPKATSSPLYLAHEVQLFSSQYPFHVPLLSSQKMVYPGLQEPWLHSMYHGAAFQLTQGDQLSTHTDGIPHLVLSPSTVFFGAFAL
notes: range 28-171; these probably count on the mature protein (171 residues), not on the precursor

Assay [1] addresses T1, LT28-171 (lymphotoxin) (UniProt P01374).
T1 sequence (looked up): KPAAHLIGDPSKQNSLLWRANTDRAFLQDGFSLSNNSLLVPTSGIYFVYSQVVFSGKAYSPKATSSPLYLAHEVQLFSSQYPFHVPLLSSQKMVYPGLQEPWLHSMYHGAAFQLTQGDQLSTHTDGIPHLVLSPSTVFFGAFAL
Nature of the assay: cell-based or functional assay.

For assay [2], the target named is tumor necrosis factor α (TNFα) (UniProt P01375). Briefly: cell-based or functional assay.
tumor necrosis factor α (TNFα), sequence (P01375 77-233 limits assumed): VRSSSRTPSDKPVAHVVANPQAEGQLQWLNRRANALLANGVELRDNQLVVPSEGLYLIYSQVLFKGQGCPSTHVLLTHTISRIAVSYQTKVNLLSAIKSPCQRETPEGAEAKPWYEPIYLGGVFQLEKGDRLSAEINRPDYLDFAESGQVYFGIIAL
The target in assay [3] is B2. Briefly: cell-based or functional assay.
Assay [4] concerns the target B1. Nature of the assay: SPR, Biacore3000, receptor:Fc amine-coupled to CM5 chip, ligand in flow, 1:1 Langmuir fit. On the procedure:
The interaction of the receptor and the ligand was measured in kinetics assay using Wizard of Biacore3000. All the ligands were applied at a flow rate of 40 μL/min for 1 min, dissociated for 2 min, and then 50 mM NaOH and HBS-P buffer were applied at a flow rate of 100 μL/min for 15s and 60s to regenerate the ligands (50 mM NaOH and HBS-P buffer were applied at a flow rate of 100 μL/min for 10s and 30s to regenerate in the primary screening). The experimental data were fit to the 1:1 Langmuir association model in the analysis software of Biacore3000 to provide the specific kinetic constant.
Background: In SPR one partner is held on a chip, and binding of the other changes the refractive index at the surface.

Regarding TNFRp75 (E92A): Fc fusion protein, in assay [1], the EC50(ng/ml) of the neutralizing activity of the mutants against LT amounted to 7.93 ng/mL and the Enhancement of the neutralizing activity against LT was 291%. In assay [2], the EC50(ng/ml) of the neutralizing activity of the mutants (Example 9: against the cytotoxicity of TNFα) amounted to 6.34 ng/mL and the Enhancement of the neutralizing activity against TNFα was found to be 130%.
As for TNFRp75 (E92N): Fc fusion protein, in assay [1], the EC50(ng/ml) of the neutralizing activity of the mutants against LT came out at 7.94 ng/mL and the Enhancement of the neutralizing activity against LT was determined as 277%. For the same molecule, in assay [2], the EC50(ng/ml) of the neutralizing activity of the mutants (Example 9: against the cytotoxicity of TNFα) was found to be 5.68 ng/mL, the Enhancement of the neutralizing activity against TNFα stood at 131% and the neutralizing activity to TNFα relative to wild-type soluble TNFRp75: Fc (ENBREL from AMGEN) (times that of wild-type TNFRp75: Fc) came to 1.33.
For TNFRp75 (E92S, W89Y): Fc fusion protein, in assay [1], the EC50(ng/ml) of the neutralizing activity of the mutants against LT came out at 6.28 ng/mL and the Enhancement of the neutralizing activity against LT was found to be 368%. In addition, in assay [2], the EC50(ng/ml) of the neutralizing activity of the mutants (Example 9: against the cytotoxicity of TNFα) worked out at 12.2 ng/mL and the Enhancement of the neutralizing activity against TNFα amounted to 133%.
With TNFRp75 (E92H): Fc fusion protein, in assay [1], the EC50(ng/ml) of the neutralizing activity of the mutants against LT amounted to 3.74 ng/mL and the Enhancement of the neutralizing activity against LT was found to be 1180%. Besides, in assay [2], the EC50(ng/ml) of the neutralizing activity of the mutants (Example 9: against the cytotoxicity of TNFα) turned out to be 9.03 ng/mL and the Enhancement of the neutralizing activity against TNFα came out at 129%.
Consider TNFRp75 (E92N, W89F): Fc fusion protein, for which, in assay [1], the EC50(ng/ml) of the neutralizing activity of the mutants against LT came to 7.56 ng/mL and the Enhancement of the neutralizing activity against LT came to 308%. For the same molecule, in assay [2], the EC50(ng/ml) of the neutralizing activity of the mutants (Example 9: against the cytotoxicity of TNFα) was found to be 1020 ng/mL and the Enhancement of the neutralizing activity against TNFα was 128%.
On to B1, for which the “EC50 of the neutralizing activity on LT” value in assay [3] stood at 22.3 ng/mL.
As for B2, in assay [4], the Kd (commonly the constant that tells how readily two partners part at equilibrium) was 0.134 nM, the koff (commonly the first-order rate constant of dissociation) is 6.99e-07 s⁻¹ and the on-rate constant (kon) (commonly the second-order rate constant of association) was 5230 M⁻¹ s⁻¹.
